According to patent publication US20190359662A1:

Experiments:
Experiment in all cases: cell-based or functional assay
hNav1.7 (human) = hNav1.7 (human) (UniProt Q15858)
hNav1.8 (human) = hNav1.8 (human) (UniProt Q9Y5Y9)
hNav1.3 (human) = hNav1.3 (human) (UniProt Q9NY46)
hNav1.5 (human) = hNav1.5 (human) (UniProt Q14524)
hNav1.4 (human) = hNav1.4 (human) (UniProt P35499)
hNav1.6 (human) = hNav1.6 (human) (UniProt Q9UQD0)
hNav1.2 (human) = hNav1.2 (human) (UniProt Q99250)
hNav1.9 (human) = hNav1.9 (human) (UniProt Q9UI33)
hNav1.1 (human) = hNav1.1 (human) (UniProt P35498)

hNav1.8 (human), sequence (Q9Y5Y9 whole entry): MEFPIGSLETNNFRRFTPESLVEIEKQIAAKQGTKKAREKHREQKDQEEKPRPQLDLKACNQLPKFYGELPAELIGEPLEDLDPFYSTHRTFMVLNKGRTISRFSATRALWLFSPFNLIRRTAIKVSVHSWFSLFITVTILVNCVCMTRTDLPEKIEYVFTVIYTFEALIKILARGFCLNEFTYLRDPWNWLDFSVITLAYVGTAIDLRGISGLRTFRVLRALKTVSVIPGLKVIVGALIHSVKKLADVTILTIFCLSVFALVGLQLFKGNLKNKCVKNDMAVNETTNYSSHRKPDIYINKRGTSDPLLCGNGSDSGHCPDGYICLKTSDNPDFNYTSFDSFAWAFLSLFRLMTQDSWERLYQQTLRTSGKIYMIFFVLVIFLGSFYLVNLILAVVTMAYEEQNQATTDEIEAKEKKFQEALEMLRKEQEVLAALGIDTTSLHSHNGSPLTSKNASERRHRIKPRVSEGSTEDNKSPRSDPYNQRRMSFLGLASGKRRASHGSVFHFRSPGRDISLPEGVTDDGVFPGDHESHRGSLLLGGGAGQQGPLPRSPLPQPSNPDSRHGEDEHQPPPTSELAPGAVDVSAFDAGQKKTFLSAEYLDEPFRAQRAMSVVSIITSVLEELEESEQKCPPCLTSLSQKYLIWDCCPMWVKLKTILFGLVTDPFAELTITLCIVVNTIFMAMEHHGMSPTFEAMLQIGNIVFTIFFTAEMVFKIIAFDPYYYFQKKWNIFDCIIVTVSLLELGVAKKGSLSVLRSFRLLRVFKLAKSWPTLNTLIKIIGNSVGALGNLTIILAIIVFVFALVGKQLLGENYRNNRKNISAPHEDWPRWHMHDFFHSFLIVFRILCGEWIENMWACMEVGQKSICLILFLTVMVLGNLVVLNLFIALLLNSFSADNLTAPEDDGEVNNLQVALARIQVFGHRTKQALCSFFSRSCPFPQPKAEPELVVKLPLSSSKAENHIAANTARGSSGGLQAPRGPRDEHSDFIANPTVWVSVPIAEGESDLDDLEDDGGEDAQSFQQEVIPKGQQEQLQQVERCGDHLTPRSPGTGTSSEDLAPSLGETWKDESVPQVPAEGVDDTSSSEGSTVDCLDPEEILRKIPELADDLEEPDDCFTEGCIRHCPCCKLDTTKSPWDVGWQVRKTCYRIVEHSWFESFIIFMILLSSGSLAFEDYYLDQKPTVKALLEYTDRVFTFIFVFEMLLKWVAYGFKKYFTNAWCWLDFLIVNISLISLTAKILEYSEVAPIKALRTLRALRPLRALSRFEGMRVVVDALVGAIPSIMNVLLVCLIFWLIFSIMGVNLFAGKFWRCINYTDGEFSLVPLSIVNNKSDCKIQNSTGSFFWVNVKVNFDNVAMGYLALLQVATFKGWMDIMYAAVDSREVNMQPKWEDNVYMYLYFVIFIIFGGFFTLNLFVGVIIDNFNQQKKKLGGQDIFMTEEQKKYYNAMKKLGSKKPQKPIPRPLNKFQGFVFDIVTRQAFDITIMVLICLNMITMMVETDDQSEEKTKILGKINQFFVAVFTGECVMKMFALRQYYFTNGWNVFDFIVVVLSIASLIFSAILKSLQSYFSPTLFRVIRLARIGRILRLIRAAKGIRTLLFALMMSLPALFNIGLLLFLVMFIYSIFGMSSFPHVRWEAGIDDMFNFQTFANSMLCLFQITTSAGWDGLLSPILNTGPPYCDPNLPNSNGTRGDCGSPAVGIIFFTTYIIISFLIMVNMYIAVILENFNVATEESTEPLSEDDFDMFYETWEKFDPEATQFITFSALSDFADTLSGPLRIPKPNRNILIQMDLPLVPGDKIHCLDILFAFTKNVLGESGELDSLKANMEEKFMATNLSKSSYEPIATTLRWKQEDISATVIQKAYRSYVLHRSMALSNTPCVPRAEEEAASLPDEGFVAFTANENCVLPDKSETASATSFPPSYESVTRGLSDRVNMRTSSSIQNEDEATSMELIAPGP
hNav1.2 (human), sequence (Q99250 whole entry): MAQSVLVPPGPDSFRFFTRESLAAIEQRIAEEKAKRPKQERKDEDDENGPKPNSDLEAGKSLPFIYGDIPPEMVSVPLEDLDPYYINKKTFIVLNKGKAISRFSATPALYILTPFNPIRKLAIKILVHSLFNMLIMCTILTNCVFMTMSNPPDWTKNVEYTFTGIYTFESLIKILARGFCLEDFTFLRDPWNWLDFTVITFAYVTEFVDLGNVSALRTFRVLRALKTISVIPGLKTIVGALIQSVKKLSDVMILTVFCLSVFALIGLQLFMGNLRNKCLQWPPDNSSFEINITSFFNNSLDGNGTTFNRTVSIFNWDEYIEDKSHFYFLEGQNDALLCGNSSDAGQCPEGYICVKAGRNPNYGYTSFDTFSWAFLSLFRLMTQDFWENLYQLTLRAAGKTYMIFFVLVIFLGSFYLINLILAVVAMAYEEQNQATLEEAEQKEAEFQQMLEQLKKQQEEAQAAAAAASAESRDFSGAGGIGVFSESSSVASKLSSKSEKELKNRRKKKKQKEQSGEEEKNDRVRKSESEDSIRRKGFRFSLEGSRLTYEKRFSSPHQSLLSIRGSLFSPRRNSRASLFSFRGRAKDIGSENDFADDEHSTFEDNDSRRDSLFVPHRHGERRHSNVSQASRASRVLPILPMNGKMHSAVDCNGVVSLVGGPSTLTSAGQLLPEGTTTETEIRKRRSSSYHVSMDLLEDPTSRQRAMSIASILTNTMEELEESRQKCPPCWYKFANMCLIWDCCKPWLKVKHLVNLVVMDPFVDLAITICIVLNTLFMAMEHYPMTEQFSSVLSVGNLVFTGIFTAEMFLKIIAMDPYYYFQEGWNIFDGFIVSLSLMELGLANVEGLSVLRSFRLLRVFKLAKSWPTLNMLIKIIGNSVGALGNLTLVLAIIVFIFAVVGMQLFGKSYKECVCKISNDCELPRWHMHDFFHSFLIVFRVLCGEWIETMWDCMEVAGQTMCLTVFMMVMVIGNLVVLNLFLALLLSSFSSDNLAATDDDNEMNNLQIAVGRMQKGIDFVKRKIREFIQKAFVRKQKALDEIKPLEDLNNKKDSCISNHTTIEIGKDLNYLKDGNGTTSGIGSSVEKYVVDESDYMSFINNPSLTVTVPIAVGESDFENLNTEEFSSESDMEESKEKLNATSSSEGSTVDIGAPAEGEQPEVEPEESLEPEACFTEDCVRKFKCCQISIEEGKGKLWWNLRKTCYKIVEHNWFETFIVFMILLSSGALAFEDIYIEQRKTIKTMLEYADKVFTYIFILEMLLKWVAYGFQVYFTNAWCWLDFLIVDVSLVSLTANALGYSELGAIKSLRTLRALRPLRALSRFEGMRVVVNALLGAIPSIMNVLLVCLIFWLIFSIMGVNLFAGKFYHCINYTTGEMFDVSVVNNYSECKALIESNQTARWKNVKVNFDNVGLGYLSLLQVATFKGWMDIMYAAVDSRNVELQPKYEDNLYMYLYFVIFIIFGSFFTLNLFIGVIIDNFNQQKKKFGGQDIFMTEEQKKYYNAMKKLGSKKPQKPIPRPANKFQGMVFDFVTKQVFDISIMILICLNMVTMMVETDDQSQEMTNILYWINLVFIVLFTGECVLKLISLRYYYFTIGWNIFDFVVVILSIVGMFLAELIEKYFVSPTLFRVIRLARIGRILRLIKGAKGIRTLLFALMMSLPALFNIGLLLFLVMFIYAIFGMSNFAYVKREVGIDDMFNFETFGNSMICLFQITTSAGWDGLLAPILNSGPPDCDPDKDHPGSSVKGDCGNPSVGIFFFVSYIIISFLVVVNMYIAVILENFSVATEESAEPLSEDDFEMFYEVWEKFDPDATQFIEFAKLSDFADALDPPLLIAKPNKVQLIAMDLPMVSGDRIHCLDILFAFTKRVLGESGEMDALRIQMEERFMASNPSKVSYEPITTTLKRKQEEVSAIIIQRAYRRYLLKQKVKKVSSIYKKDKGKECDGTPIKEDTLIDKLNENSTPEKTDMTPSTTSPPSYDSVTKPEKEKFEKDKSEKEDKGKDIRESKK

Question: With Pnc1a (peptide) as the substance, how does the pIC50, automated patch clamp (hNav1.7 (human)) read?
Answer: > 9.04 M

Question: And the pIC50, automated patch clamp (hNav1.8 (human))?
Answer: 4.32 M

Question: What about the pIC50, membrane potential assay (hNav1.8 (human)) of the same substance?
Answer: 4.58 M

Question: And the pIC50, automated patch clamp (hNav1.3 (human))?
Answer: 6.68 M

Question: And the pIC50, membrane potential assay (hNav1.3 (human))?
Answer: 5.09 M

Question: And the pIC50, automated patch clamp (hNav1.5 (human))?
Answer: 6.01 M

Question: And the pIC50, membrane potential assay (hNav1.5 (human))?
Answer: 4.07 M

Question: What about the pIC50, automated patch clamp (hNav1.4 (human)) of the same substance?
Answer: 6.8 M

Question: What about the pIC50, membrane potential assay (hNav1.4 (human)) of the same substance?
Answer: 4.95 M

Question: And the pIC50, automated patch clamp (hNav1.6 (human))?
Answer: 6.89 M

Question: What about the pIC50, membrane potential assay (hNav1.6 (human)) of the same substance?
Answer: 4.73 M

Question: What about the pIC50, automated patch clamp (hNav1.2 (human)) of the same substance?
Answer: 6.9 M

Question: And the pIC50, membrane potential assay (hNav1.2 (human))?
Answer: 5.53 M

Question: And the pIC50, automated patch clamp (hNav1.9 (human))?
Answer: 5.63 M

Question: What about the pIC50, automated patch clamp (hNav1.1 (human)) of the same substance?
Answer: 7.43 M

Question: And the pIC50, membrane potential assay (hNav1.1 (human))?
Answer: 4.88 M
